Test results published in paper PMC3752466 (Nature communications, 2013).
“And” between values parts separate entries of the source, which are not always exact repeats. Equal entries are not always repeated.

Molecular target: T1, BoNT/B-HC (binding domain of botulinum neurotoxin type B, residues 857-1291) (UniProt P10844 857-1291)
T1 sequence: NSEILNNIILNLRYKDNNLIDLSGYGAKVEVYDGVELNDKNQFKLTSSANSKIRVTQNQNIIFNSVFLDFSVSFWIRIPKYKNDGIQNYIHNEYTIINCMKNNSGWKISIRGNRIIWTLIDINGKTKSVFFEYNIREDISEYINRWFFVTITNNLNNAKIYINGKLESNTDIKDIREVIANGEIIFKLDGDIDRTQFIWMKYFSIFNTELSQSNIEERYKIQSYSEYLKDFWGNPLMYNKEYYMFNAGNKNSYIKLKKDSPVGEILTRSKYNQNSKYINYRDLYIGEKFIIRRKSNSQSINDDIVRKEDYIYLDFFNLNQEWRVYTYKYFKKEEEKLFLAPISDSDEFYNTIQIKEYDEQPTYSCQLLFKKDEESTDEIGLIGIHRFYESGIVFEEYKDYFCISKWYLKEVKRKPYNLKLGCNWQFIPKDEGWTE
Assay: ITC

Binder: GESQEDMFAKLKDKFFNEINK [rat Syt-II peptide (residue 40-60)]
- Kd: 140 nM and 180 nM
